Measured values as given in US11026972B2, “Methods for generating macrophages with enhanced cancer phagocytosis” (Georgia State University Research Foundation, Inc., priority 2016, dated 2021).

Tested on: SIRPα^−/− and CD47^−/− mice
Experiment: Acute anemia and splenomegaly in mice deficient of CD47-SIRPα-mediated inhibition under inflammatory conditions
Type: in vivo, mouse
Excerpt: FIGS. 1A-1K illustrate our assessment of acute anemia in mice deficient of CD47-SIRPα-mediated inhibition under inflammatory conditions. FIG. 1A includes a schematic drawing of a wild type (WT) and targeted allele of SIRPα (“SIRPα”) and data related to the generation of SIRPα “knock out” (KO) mice. […] Western blot (WB) analysis confirmed the depletion of SIRPα (˜120 kDa) protein in bone marrow leukocytes from SIRPα^−/− mice. FIG. 1B includes a photograph of intestinal tissue and a line graph charting the change in body weight of mice in which colitis had been induced by treatment with 1% or 2% DSS. […] FIGS. 1C and 1D include data related to acute anemia and splenomegaly developed in SIRPα^−/− mice with colitis. WT mice and SIRPα^−/− mice treated with DSS (2% DSS for WT and 1% DSS for SIRPα^−/−) for 10 days were analyzed for the presence of […] (FIG. 1C) and the content of hemoglobin in peripheral blood (FIG. 1D). FIG. 1E includes a panel of photomicrographs in which hematoxylin and eosin (H&E) was used to stain sections of spleens from WT and SIRPα^−/− mice treated with 2% and 1% DSS for 10 days. The bar graph of FIG. 1E illustrates the hemoglobin content in the spleens of WT and SIRPα^−/− mice treated with water or DSS. FIG. 1F is a pair of line graphs showing the time course over which anemia developed in SIRPα^−/− mice when colitis was induced with DSS and the levels of IL-17 in the serum over that same period of time. FIG. 1G is a diagram showing that IL-17 neutralization ameliorates anemia and splenomegaly in SIRPα^−/− mice with colitis. An anti-IL-17 antibody (10 μg, i.v.) was given on days 6 and 8 (arrows) during DSS-induction of colitis. FIG. 1H is a diagram showing that IL-17-containing colitic serum induces acute anemia in SIRPα^−/− mice. Serum samples collected from healthy (Ctl.) and colitic WT mice (2% DSS, 10 d) were administered to healthy SIRPα^−/− mice (i.v., 3×, arrows) with or without an anti-IL-17 antibody. FIGS. 1I and 1J are illustrative graphs showing that IL-17 directly induces acute anemia and splenomegaly in SIRPα^−/− mice and Cd47^−/− mice. Healthy mice were given recombinant IL-17 (10 μg/kg, i.v.) on days 1 and 3 (arrows, FIG. 1J); anemia and splenomegaly were analyzed on day 5 (FIG. 1I) or in a time course manner (FIG. 1J). FIG. 1K includes diagrams showing that acute anemia and splenomegaly in SIRPα^−/− and Cd47^−/− mice under zymosan-peritonitis (3×, every other day), IL-6 administration ([…], i.v.), LPS (0.25 mg/kg, i.p.), and CFA (1×, s.c.) administrations. Error bars are ±SEM **P<0.01, ***P<0.001 vs. control or the beginning time point. Data presented in each panel represent at least three independent experiments with n≥4, if applicable.
Hemoglobin assay: To assay blood hemoglobin, 10 μl of whole blood were obtained from the tail vein followed by lysis in 1 ml distilled water. After centrifugation (13,000 rpm, 30 min), the hemoglobin-containing supernatants were collected and measured for the optical density at the wavelength of 540 nm.
Animal inflammation models: To induce peritonitis, mice (6-8 wk, 20-22 g) were intraperitoneally injected with 0.5 mg zymosan A (Sigma) in 0.5 ml sterile PBS followed by euthanasia at 2, 4, 6 and 8 hours. […] The colitic condition was then assessed by observing diarrhea, measuring body weight loss, increases of inflammatory cytokines, the shortage of the large intestine and intestinal tissue analyses (after euthanasia). […]

Molecule	anemia and splenomegaly (SIRPα^−/− and CD47^−/− mice, zymosan 3 times every other day, IL-6 2×10 μg/kg i.v., LPS 0.25 mg/kg i.p., CFA s.c.)	acute anemia and splenomegaly (CD47^−/− mice, IL-17 injection)	acute anemia and splenomegaly (healthy SIRPα^−/− mice, 2×10 μg/kg, i.v.)
lipopolysaccharide [LPS]	induced anemia and splenomegaly	–	–
IL-17: recombinant murine cytokine interleukin IL-17 (also known as IL-17A), PeproTech (protein, UniProt Q62386 26-158, looked up) Interleukin-17A: AAIIPQSSACPNTEAKDFLQNVKVNLKVFNSLGAKVSSRRPSDYLNRSTSPWTLHRNEDPDRYPSVIWEAQCRHQRCVNAEGKLDHHMNSVLIQQEILVLKREPESCPFTFRVEKMLVGVGCTCVASIVRQAA	–	induced acute anemia and splenomegaly	directly induced acute anemia and splenomegaly
